*1 amine or outer side, *2 acyl side, *3 side chain or, on linkers, in order; H or OH if unused. Bridges are numbered along the chain shown (N, C = ends). [ ]: non-standard residue; d: D form. Pqa = N-piperazin-1-yl-4(3H)-quinazolinone-3-acetic acid, O=C(Cn1cnc2ccc(N3CCN([*:1])CC3)cc2c1=O)[*:2]; Cms = N-(5-O-carboxymethyl)-serotonin, O=C(COc1ccc2[nH]cc(CCN[*:1])c2c1)[*:2]; Nle = CCCC[C@H](N)C(=O)O Some results are limits rather than exact numbers.

First the molecules themselves.
T1: human NPY2 receptor (human, UniProt P49146 1-381)
T1 sequence (looked up): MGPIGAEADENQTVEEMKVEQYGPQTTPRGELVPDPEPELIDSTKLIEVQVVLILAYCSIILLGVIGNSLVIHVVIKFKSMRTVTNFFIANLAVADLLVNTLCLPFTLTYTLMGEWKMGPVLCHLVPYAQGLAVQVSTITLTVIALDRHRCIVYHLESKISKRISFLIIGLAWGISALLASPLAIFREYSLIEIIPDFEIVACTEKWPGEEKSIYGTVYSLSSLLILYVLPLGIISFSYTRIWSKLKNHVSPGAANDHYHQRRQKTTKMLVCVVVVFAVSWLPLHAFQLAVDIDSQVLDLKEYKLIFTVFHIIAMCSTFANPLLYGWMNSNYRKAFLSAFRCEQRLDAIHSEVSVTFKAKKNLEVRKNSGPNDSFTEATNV

B1: H-Ile-Lys-Pqa-Arg-His-Tyr-Leu-Asn-Leu-Val-Thr-Arg-Gln-(NMe)Arg-Tyr-NH2 (peptide)
peptide: IKRHYLNLVTRQRY
modifications: N-methyl Arg at PYY position 35 (residue 11 of the second part); Pqa moiety between the two parts; C-terminal amide
B2: Cyclo Lys28-Aspu32 Ac-Ile-Nle-Cms-Arg-His-Tyr-Lys-Asn-Leu-Val-Asp-Arg-Gln-Arg-Tyr-NH2 (peptide)
peptide: Ac-I[Nle][Cms]RHYKNLVDRQRY-NH2
modifications: lactam 7-11
SMILES: CCCC[C@H](NC(=O)[C@@H](NC(C)=O)[C@@H](C)CC)C(=O)NCCc1c[nH]c2ccc(OCC(=O)N[C@@H](CCCNC(=N)N)C(=O)N[C@@H](Cc3c[nH]cn3)C(=O)N[C@@H](Cc3ccc(O)cc3)C(=O)N[C@H]3CCCCNC(=O)C[C@@H](C(=O)N[C@@H](CCCNC(=N)N)C(=O)N[C@@H](CCC(N)=O)C(=O)N[C@@H](CCCNC(=N)N)C(=O)N[C@@H](Cc4ccc(O)cc4)C(N)=O)NC(=O)[C@H](C(C)C)NC(=O)[C@H](CC(C)C)NC(=O)[C@H](CC(N)=O)NC3=O)cc12
B3: H-Ile-Lys-Pqa-Arg-His-Tyr-Leu-Asn-(D)Leu-Val-Thr-Arg-Gln-Arg-Tyr-NH2 (peptide)
peptide: IKRHYLNLVTRQRY
modifications: (D)Leu at PYY position 30 (residue 6 of the second part); Pqa moiety between the two parts; C-terminal amide
B4: H-Ile-Lys-Pqa-Arg-His-Tyr-Leu-Asn-Leu-Val-Thr-Arg-Gln-(D)Arg-Tyr-NH2 (peptide)
peptide: IKRHYLNLVTRQRY
modifications: (D)Arg at PYY position 35 (residue 11 of the second part); Pqa moiety between the two parts; C-terminal amide
B5: H-Ile-Lys-Pqa-Arg-His-Tyr-Leu-Asn-Leu-Val-Thr-(D)Arg-Gln-Arg-Tyr-NH2 (peptide)
peptide: IKRHYLNLVTRQRY
modifications: (D)Arg at PYY position 33 (residue 9 of the second part); Pqa moiety between the two parts; C-terminal amide
B6: H-Ile-Lys-Pqa-Arg-His-Tyr-Leu-Asn-Leu-(D)Val-Thr-Arg-Gln-Arg-Tyr-NH2 (peptide)
peptide: IKRHYLNLVTRQRY
modifications: (D)Val at PYY position 31 (residue 7 of the second part); Pqa moiety between the two parts; C-terminal amide
B7: H-Ile-Lys-Pqa-Arg-Ala-Tyr-Leu-Asn-Leu-Val-Thr-Arg-Gln-Arg-Tyr-NH2 (peptide)
peptide: H-IK[Pqa]RAYLNLVTRQRY-NH2
SMILES: CC[C@H](C)[C@H](N)C(=O)N[C@@H](CCCCN)C(=O)N1CCN(c2ccc3ncn(CC(=O)N[C@@H](CCCNC(=N)N)C(=O)N[C@@H](C)C(=O)N[C@@H](Cc4ccc(O)cc4)C(=O)N[C@@H](CC(C)C)C(=O)N[C@@H](CC(N)=O)C(=O)N[C@@H](CC(C)C)C(=O)N[C@H](C(=O)N[C@H](C(=O)N[C@@H](CCCNC(=N)N)C(=O)N[C@@H](CCC(N)=O)C(=O)N[C@@H](CCCNC(=N)N)C(=O)N[C@@H](Cc4ccc(O)cc4)C(N)=O)[C@@H](C)O)C(C)C)c(=O)c3c2)CC1

Sequence of Y1R (P25929 whole entry): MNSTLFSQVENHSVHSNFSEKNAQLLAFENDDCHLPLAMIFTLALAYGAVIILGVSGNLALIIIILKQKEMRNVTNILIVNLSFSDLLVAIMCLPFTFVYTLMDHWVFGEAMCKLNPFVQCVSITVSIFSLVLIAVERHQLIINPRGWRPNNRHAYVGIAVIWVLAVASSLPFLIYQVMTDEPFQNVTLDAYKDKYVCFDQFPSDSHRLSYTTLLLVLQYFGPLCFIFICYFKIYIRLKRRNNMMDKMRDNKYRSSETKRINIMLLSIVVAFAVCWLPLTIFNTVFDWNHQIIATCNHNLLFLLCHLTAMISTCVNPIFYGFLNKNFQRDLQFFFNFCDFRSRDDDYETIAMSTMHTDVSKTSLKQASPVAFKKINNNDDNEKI

One assay deals with T1, human NPY2 receptor. In words: cell-based or functional assay.
In the case of IKGRHYLNLVTRQRY (Cms moiety between the two parts; C-terminal amide) [H-Ile-Lys-Gly-Cms-Arg-His-Tyr-Leu-Asn-Leu-Val-Thr-Arg-Gln-Arg-Tyr-NH2], the “Y2R EC50(nM) FLIPR” value stood at 4.16 nM and the “Y2R IC50(nM) cAMP” value was 0.085 nM.

B1: the “Y2R EC50(nM) FLIPR” value worked out at 18.9 nM and the “Y2R IC50(nM) cAMP” value was 0.417 nM.

For the molecule B2, the “Y2R EC50(nM) FLIPR” value worked out at 146 nM and the “Y2R IC50(nM) cAMP” value amounted to 32.2 nM.

The next assay addresses Y1R. Put plainly: cell-based or functional assay.
For B3, the “Y1R EC50(nM) FLIPR” value was above 5000 nM.

Consider B4, for which the “Y1R EC50(nM) FLIPR” value is above 5000 nM.

Turning to B5, the “Y1R EC50(nM) FLIPR” value is above 5000 nM.

B6: the “Y1R EC50(nM) FLIPR” value was above 5000 nM.

On to IARHYLNLVTRQRY (Pqa moiety between the two parts; C-terminal amide) [H-Ile-Ala-Pqa-Arg-His-Tyr-Leu-Asn-Leu-Val-Thr-Arg-Gln-Arg-Tyr-NH2], for which the “Y1R EC50(nM) FLIPR” value amounted to 1000 nM.

Regarding B2, the “Y1R EC50(nM) FLIPR” value is above 5000 nM.

Consider B7, for which the “Y1R EC50(nM) FLIPR” value is above 5000 nM.

As for IARHYLNLVTRQRY (N-terminal acetyl; Pqa moiety between the two parts; C-terminal amide) [Ac-Ile-Ala-Pqa-Arg-His-Tyr-Leu-Asn-Leu-Val-Thr-Arg-Gln-Arg-Tyr-NH2], the “Y1R EC50(nM) FLIPR” value was above 5000 nM.

As to AKRHYLNLVTRQRY (Pqa moiety between the two parts; C-terminal amide) [H-Ala-Lys-Pqa-Arg-His-Tyr-Leu-Asn-Leu-Val-Thr-Arg-Gln-Arg-Tyr-NH2], the “Y1R EC50(nM) FLIPR” value is above 5000 nM.

The target of a further assay is Y4R. Put plainly: cell-based or functional assay.
Consider B3, for which the “Y4R EC50(nM) FLIPR” value was above 5000 nM.

Take B4: the “Y4R EC50(nM) FLIPR” value is above 5000 nM.

For B5, the “Y4R EC50(nM) FLIPR” value is above 5000 nM.

Consider B6, for which the “Y4R EC50(nM) FLIPR” value was above 5000 nM.

On to IARHYLNLVTRQRY (Pqa moiety between the two parts; C-terminal amide) [H-Ile-Ala-Pqa-Arg-His-Tyr-Leu-Asn-Leu-Val-Thr-Arg-Gln-Arg-Tyr-NH2], for which the “Y4R EC50(nM) FLIPR” value was above 5000 nM.

Take B2: the “Y4R EC50(nM) FLIPR” value was above 5000 nM.

For B7, the “Y4R EC50(nM) FLIPR” value is above 5000 nM.

For the molecule IARHYLNLVTRQRY (N-terminal acetyl; Pqa moiety between the two parts; C-terminal amide) [Ac-Ile-Ala-Pqa-Arg-His-Tyr-Leu-Asn-Leu-Val-Thr-Arg-Gln-Arg-Tyr-NH2], the “Y4R EC50(nM) FLIPR” value amounted to 3020 nM.

Consider AKRHYLNLVTRQRY (Pqa moiety between the two parts; C-terminal amide) [H-Ala-Lys-Pqa-Arg-His-Tyr-Leu-Asn-Leu-Val-Thr-Arg-Gln-Arg-Tyr-NH2], for which the “Y4R EC50(nM) FLIPR” value is above 5000 nM.
